{
  "source": "the DeepSol protein solubility set",
  "data": [
    {"assay": "soluble on expression in E. coli; label from the status in PepcDB or PDB records", "values": [
      {"sequence": "MGSDKIHHHHHHMQKESIYGLTREQLVDWFLAHGEKKFRATQVWEWLYTKRVASFSEMSNISKSLMTLLEENFSLNPLKQVIVQEAQDGTVKYLFELPDKNMIETVLMRQEYGLSVCVTTQVGCNIGCTFCASGLLKKQRDLTAGEIVAQIMWVQHYFDERGLDERVSHVVVMGIGEPFDNYANVMNFLRTINDDKGLAIGARHITVSTSGLVPKIREFADSGLQVNLAISLHAPNNEVRTSIMRINRSFPIEKLMAAIDEYIEKTNRRVTFEYIMLSQVNDRPEHAQQLADLLRNKKKLSYVNLIPYNPVSEHDQYSRSSKEAVLKFYDVLKKNGINCVIRKEHGTDIDAACGQLRSKQMKKEKVKNQ", "soluble on expression in E. coli": "not soluble"},
      {"sequence": "GHHHHHHAIAENLYFQSQQVKQKHKKSDEYRVFVGNLPFSWLEDAVRSVFHSYGTVVDVEVPRKREQPERNRGFAFVYFSSREEALAATTLSGSRLDGRIIKVEWADDGSEHRKVGHEELTQRPTHPLASSQVYEWGGQQVQKQNDSVVSKETPNFMPSGALYKEQRMTRYGKELKFVEPLDARKPEQPWRMYVFKNGKLLEGEEGVFYIHQKSNYLFGRDRDVVDIPIDHPSASKQHAVLQFRQVMPKNGNKLVIKPYIMDLESTNGTFLNNERIESLRYYELLEKDLLRFGHSSREFILLTGHK", "soluble on expression in E. coli": "soluble"},
      {"sequence": "MGDNQVTGGDIHKLWMTAHMDISAVEDAYIKLTEQLDGDVAEGDEGKYGKAFDSWNIYREIVQLALFRTAVSARATRLALDLAVSEFTFVDGDAANGITDAGKEFLEAVGDENQTPPEYVVEPEGDPVAPLGNDE", "soluble on expression in E. coli": "not soluble"},
      {"sequence": "MKIALINENSQASKNHIIYDSLKEATDKKGYQLFNYGMRGEEGESQLTYVQNGLMAAILLNTKAVDFVVTGCGTGVGAMLALNSFPGVVCGLAVDPTDAYLYSQINGGNALSIPYAKGFGWGAELTLKLMFERLFAEEMGGGYPRERVIPEQRNARILNEVKQITHNDLMTILKIIDQDFLKDTISGKYFQEYFFENCQDDEVAAYLKEVLAK", "soluble on expression in E. coli": "soluble"},
      {"sequence": "MGSDKIHHHHHHMGKVTIEPLSRLEGHGKVSITLDDAGKPTDVKLHITALRGFEQFVVGRPAEEVPRIVPRICGICQTPHHLASVKAVDAAWGAEVPSAAEKLRELMHLGNMMHSHALHFYYLAAPDFVLGPDSDPAARNIIGVIGAAPEVAKKAIAMRRVGQSIVETIGGRAIHPVTGVPGGVSKALSEEKRDELLNEIDEMIAYGQDGIALIKSLNEKYMDLAKTLGVIDTWYLGMVKDGKHNFYGDTLRFMSPDGKQTTDFKPSEYLDNIGEHVVGHNYVKYPYNKKVGYPDGLYRVGPLAMLNVCDSMPTPLAEEARKDFADTFGKPANQSLAYNHARLIELLASCERVKELLEDSEITSTDIKAEVEPKAGNGVGAIYAPRGTLFHNYETDDKGIVVKANMIVASTHNVPTMEKAIQQAAEVVFK", "soluble on expression in E. coli": "not soluble"},
      {"sequence": "MATIKIKFRTSSVKTKEGVLFYQIIHARVTRQINTGYKIFPSEWDKHLACIILPDNNDIRRRFLAQLTSRIAEDMHRLKNIISKLEHSGNPFTSGKIIELFRIPPINKYSFLSFAQDLIIQLKQIGKERTAESYASAYNSFKRFMDNNGDVLLEDVNSNLMIKYEIYLKNCGVCPNSCSYYMRNLRAIYNRAVEKELTQQQYPFKYVYTGIDKTVKRAVSLKTIRQIQNLDLSTNPLMDYARDIFMFSFYTRGMSFIDMAYLKKKDLQNGVLSYRRHKTDQQLFIKWEKPMQKIVDKYNTIESSYLLPIIKNNGKDPRREYKNASHLINRKLKVIGQMLEIPVTLTTYVARHAWANIAKSKNISISVISEAMGHDSENTTRIYLASLDASIVDKANSIILKSL", "soluble on expression in E. coli": "not soluble"},
      {"sequence": "MGSSHHHHHHSSGLVPRGSHMKVYYECAPCFLRQAREAIDLATDDEELKLRVMENILELLSERFRRGQVSNELGTRMHRLIKDMTGSEDPYLDEKRRCNEIALRFLPTVRDYLECHSDLESHVKVAITGNIIDFGALGLDFDHDRGIQESLRAPLTINHVPLLEDRLREASEVLYLLDNTGEILFDRPLIEKLAGYDVSVKVAVKGEPILNDACMEDALEAGLDEVAEIVTTGTDSVGIVYSDLSDEFRDMLDGTELVIAKGMGNYEGLTEISDGSRDIFCLLNAKCSAIARDLGVARGDNVAVKI", "soluble on expression in E. coli": "soluble"},
      {"sequence": "MGSDKIHHHHHHAAIPDTGNWISHHLLTSDGLTVLAAGPAFAPLKWNIGQNNMGGYKGRLLFIPYDAPSTVPMIPVKPTTNEDLITASGSFTFPSGGTYTQPIYLYSTKGKVGYKAEIQGETDGKSFKQTLEFFFPGNTPGMHAFSTLVKNTPGYFVFEDSDGQQFLMGKPGMYADVSPSFDGGKLAADQRGTAYTATCDANESAVVLGTPIDMEVIAGLKPAPSPGG", "soluble on expression in E. coli": "not soluble"},
      {"sequence": "MRTLAVISAGLSTPSSTRQIADSISEAVTAAVSARGEALSVSTIELSELIPDLMTAMTTRVHTTKLEEITSALSASDGLVVATPVFKASYTGLFKMFFDILDTDALTGMPTIIAATAGSARHSLVLDYALRPLLSYMRAVVVPTGVFAATEDFGGPEGAEFNKRIARAAGELASLIVEESGNVGLEHHHHHH", "soluble on expression in E. coli": "not soluble"},
      {"sequence": "MVFSDQQLFEKVVEILKPFDLSVVDYEEICDRMGESMRLGLQKSTNEKSSIKMFPSYVTKTPNGTETGNFLALDLGGTNYRVLSVTLEGKGKSPRIQERTYCIPAEKMSGSGTELFKYIAETLADFLENNGMKDKKFDLGFTFSFPCVQKGLTHATLVRWTKGFSADGVEGHNVAELLQTELDKRELNVKCVAVVNDTVGTLASCALEDPKCAVGLIVGTGTNVAYIEDSSKVELMDGVKEPEVVINTEWGAFGEKGELDCWRTQFDKSMDIDSLHPGKQLYEKMVSGMYLGELVRHIIVYLVEQKILFRGDLPERLKVRNSLLTRYLTDVERDPAHLLYNTHYMLTDDLHVPVVEPIDNRIVRYACEMVVKRAAYLAGAGIACILRRINRSEVTVGVDGSLYKFHPKFCERMTDMVDKLKPKNTRFCLRLSEDGSGKGAAAIAASCTRQN", "soluble on expression in E. coli": "soluble"},
      {"sequence": "MDRRSQILTIAGHLFSQRGYHATSMRELARHLNLQGGSLYAHIQSKEELLLEVVRQAAERFQKVLEELPSGDPVTRMKALVKGHLRVIAEELPRATVFFHEWKHLSPPLLEEAKALRRRYEEGVQAVVEEGVRAGVFRVENVRLATLFVLSALNWTYQWYRPDGPLSLEALAEAYAELVLKALGVAASPEGERREEGGEDGEA", "soluble on expression in E. coli": "soluble"},
      {"sequence": "PAEIHIITAARGRGKSTLAGKLAEQFAKTEQVILTAHRSSSIQKILQTASINIPFFAPDKLLNLIETKQISADHLLFIDEAACIPLPILQQLGNYFKKVILTTTTQNYEGTGRGFKLKLVKQLHRTTKEWQLFQPLRWSNHDRLEQFTNELLLLN", "soluble on expression in E. coli": "not soluble"},
      {"sequence": "MSLKRIKTVLAATDLSAPARHAAMRAALLAGQTDAKLGLLHVVDLQLMEHLRSFAGRSGEAAERRLIGEAMKELERLATDMTHRWGSAVEVRLVVGAVLKEIVAHADTLDADLLVMGARGAGFVRELLLGSTTERVLRLITRPVLMVKQIPHGPYQRVLVAVDFSERSVAALRLARWVAPEAHFVVLNAFQPPLENKLRQGGADEFEIMELRDAARRDADARMDEVMAHAGFPAERLTRLVLPGPALDCVLEQEQEQDCDLIVVGKHGYGWIEEMLLGSLTKHLLALSSCDVLVASQSREGHHHHHH", "soluble on expression in E. coli": "soluble"},
      {"sequence": "MSLGRHSDNSLQESANHTVLLTSPTNTIPKDSRQRSQQFMQNLQDEICTALEQLDGKASFHQDHWERAEGGEGRTRVIREGRVFEQGGVNFSAVWGNSLPASILAQRPEAAGHEFFATGTSMVLHPRNPYVPTVHLNYRYFEAGPIWWFGGGADLTPYYAFKEDAVHFHQTLKNACDVHNPEYYPTFKRWCDEYFYLRHREEQRGIGGIFFDYQDASGKLYVESQTDSSVAIYSQKVGNVARNWEDIFAFVQSCGQAFLPAYLPIVERRQGIEYGDRQRNFQLYRRGRYVEFNLVYDRGTVFGLQTKGRTESILMSLPPLARWEYCYEPEAGSPEAELTEVFLQPRDWVEGHHHHHH", "soluble on expression in E. coli": "not soluble"},
      {"sequence": "MAHHHHHHMDDFPLSLCSSNIRETMFKVTAPLFLALTTSNAIALSRGTSVSVSSEGGKCNEIWYSNGKEMCGSPLAPQSSTVQRALPPAPAPAKKPESSLRSGDEVATQHEERGGLDLRSIASRQPSFDALSATINGERQVGRASGTAIRGGNEGSAEPSSDEGQQRTTELWSGQAEGQVKQMAEGEQRNPGSGDEGQNQGGDVAPLQVAKEGESNMKWPPAQRVILGTVKENAQKETRKDLDDLEQEANSTQVGRTTAHKRHVMLITATLSFICVQRLLV", "soluble on expression in E. coli": "soluble"},
      {"sequence": "MISYQKAKLAKNLAISTASKWLFVHSSTGGSATNLSIAQYATLINGIQSAIKCQVILTAGKGERERAVELAEKLTDQNVVIYDKNDGLADFTRSLACADLFIAGSTGPLHIAGGLNIPTVGFYPSRLSATPRRWRPINQVDKHLAFCPPSGKQCEMDLTLISIEQALTSVIPFIKKMWQLSLEHHHHHH", "soluble on expression in E. coli": "not soluble"},
      {"sequence": "MGSDKIHHHHHHMSTILLPKTQHLVVFQEVIRSGSIGSAAKELGLTQPAVSKIINDIEDYFGVELVVRKNTGVTLTPAGQLLLSRSESITREMKNMVNEISGMSSEAVVEVSFGFPSLIGFTFMSGMINKFKEVFPKAQVSMYEAQLSSFLPAIRDGRLDFAIGTLSAEMKLQDLHVEPLFESEFVLVASKSRTCTGTTTLESLKNEQWVLPQTNMGYYSELLTTLQRNGISIENIVKTDSVVTIYNLVLNADFLTVIPCDMTSPFGSNQFITIPVEETLPVAQYAAVWSKNYRIKKAASVLVELAKEYSSYNGCRRRQLIEVG", "soluble on expression in E. coli": "not soluble"},
      {"sequence": "MSLATVPTRSGSPRQLTTKQTGDAWEAQARRWLEGKGLRFIAANVNERGGEIDLIMREGRTTVFIEVRYRRSALYGGAAASVTRSKQHKLLQTARLWLARHNGSFDTVDCRFDVVAFTGNEVEWIKDAFNDHSEGHHHHHH", "soluble on expression in E. coli": "soluble"},
      {"sequence": "MALMTNKTRALLIGGHGKVALLATPMLIDASVQVTSMYRNPDHRSEIEALGATTLERDVTTLSVEDWADLLKDFDVVVWSAGNGGKNGADATYAIDRDAAIASIDGAASLGEKAPRYIMVSYIGSSTHTIDPSASFYPYAESKKAADEHLSSTNLDYLILAPAALTLDEVNGVEVIADTNEAAAGRTTSRVLVAEVITEFVVRDFPQTRVLPFVDGESPLEHHHHHH", "soluble on expression in E. coli": "soluble"},
      {"sequence": "GPGSMGQVGGTATSGRGLTALQVAAALRVTAAARLKQAEAAVSSSQAMHSAHCSIAEQSKAIKPEDCSAVQRLTVPSTDHKGKHVEVRVTEYAPDVFSFLRQLKGVTDPQFADEWSLPENRLKMEMGEGRSQALFLKSKTMLLMCKTISVEEVHALLHVLRAYTLHITAHPSSLLMRFYMLLKVSVRSEEGYILCFNDVFGTASVLHEKWDIKGRVPKNGKHLHYPHLIGSGYEPDPHATKPPPKRHVLANPAIDASQQHPGRESAVVVRGTKDAQGLPTLHDKDLTRLFWVPRTARKRLVEELLRDYDFLKNAGMMDYSLLIGVAYQDDKTRPSDKHCGIESTNVTSSSAVAPASTSAEARPASLAQDSHPSGTRTMLTTVPEFANGVRSFDGQEMYYIGVIDVLTTYTLKKKSANFFKSLLWKQKTLSTIPPDRYAQRIASFTELIFPDVKEEANGG", "soluble on expression in E. coli": "not soluble"}
    ]}
  ]
}
